From article PMC10992053, “Rationally introducing non-canonical amino acids to enhance catalytic activity of LmrR for Henry reaction” (Bioresources and Bioprocessing, 2024) come the findings set out here.

This data set relates to O=Cc1ccc([N+](=O)[O-])cc1. Briefly: Henry reaction, product by HPLC, Michaelis-Menten fit. In kind it is biochemical, Lactococcus cremoris. The following applies: nitromethane 1 M (excess), 3-18 mM aldehyde, 0.3 mg/mL enzyme, 40 °C, 5 min. The text has this: Henry reaction, product by HPLC, Michaelis-Menten fit on LmrR (Lactococcal multidrug resistance Regulator)

Regarding “LmrR (Lactococcal multidrug resistance Regulator) (Lactococcus cremoris subsp. cremoris MG1363; V15F)”, the Km (commonly the substrate concentration at which the rate is half of its maximum) amounted to 8.28 mM; the Vmax – broadly, the rate approached at saturating substrate – was 1960 µM/min; the kcat (in general, the number of substrate molecules converted per active site and unit of time at saturation) was determined as 1.47 s⁻¹; the kcat/Km (commonly the second-order rate constant that governs catalysis at low substrate concentration) came to 178 M⁻¹ s⁻¹.
